Laboratory results taken from PMC6863750.

Key:
[1] = target: Rac1A P29S/Q61L-mCherry-mito (targeted to mitochondria) (D. discoideum) (UniProt P34144); experiment: mitochondrial co-recruitment
[2] = target: GFP-CYRI-mito, WT (Dictyostelium CYRI targeted to mitochondria) (D. discoideum); experiment: mitochondrial co-recruitment

Row | Substance | Pearson's coefficient of correlation for co-localisation at the mitochondria [1] | Pearson's coefficient of correlation for co-localisation at the mitochondria [2]
1 | Dictyostelium CYRI WT, GFP fusion (natural protein) | 0.77 | –
2 | Rac1A P29S/Q61L-mCherry (from UniProt P34144 1-194) (natural protein) | – | 0.44
